Legend:
NK92^CIRB21-icasp9 cells = experiment: Killing of icasp9-expressing NK92 cells by dimerizer drug AP1093; format: cell-based, human
Protocol: (§1) L-Holin killing assays—Cells selected cell for L-Holin were tested in a 24 well plate using 32,000 cells per well. 24 hours later doxycycline was added at 1 μg/ml for 4-5 days. Cells selected for icasp9 were tested in a 24 well plate using 32,000 cells per well. 24 hours later dimerizer drug AP1093 was added at 2 or 10 nM for 4-5 days. Surviving cells were quantified using crustal violet assay as described in (Jounaidi et al, Cancer Research 2017).
Next, we examined whether high doses of AP1093 could completely kill NK92^CIRB21−icasp9 cells.

NK92^CIRB21 cells [1] = experiment: Growth of NK92^CIRB21 cells in the presence of lactate dehydrogenase inhibitor R-GNE140 (cell count); format: cell-based, human; conditions: total cell count, FIG. 11, read-out: IC50 of R-GNE140 for inhibiting growth of NK92^CIRB21 cells
Protocol: (§2) The ability of NK92^CIRB and NK92^CIRB21 cells to grow in the presence of the lactate dehydrogenase inhibitor R-GNE140 was tested. Cells were incubated with increasing concentrations of R-GNE140 and total number of cells were counted.

NK92^CIRB cells [2] = experiment: Growth of NK92^CIRB cells in the presence of lactate dehydrogenase inhibitor R-GNE140 (cell count); format: cell-based, human; conditions: total cell count, FIG. 11, read-out: IC50 of R-GNE140 for inhibiting growth of NK92^CIRB cells
Protocol: as §2

[3] = cited from earlier work
PC-3 cells = format: cell-based, human
Text: Interleukins IL4, IL7, IL9, IL15 and IL21 belong to the same family as IL2, and use the same common IL2Rg. They all have their own private receptors, except for IL2 and IL15, which use IL2Rβ in addition to their own alpha receptors. […] Thus the entire cytoplasmic domain of IL21R was cloned then added Head-to-Tail to the C-terminal of IL2Rβ in the chimera CIRB. […] As shown herein, it was possible to emulate the activation signals from multiple cytokines that activate NK cells via different receptors by using only one ligand and a hybrid receptor.

NK92^CIRB cells [4] = experiment: L-holin killing of NK92^CIRB cells (doxycycline induction, cell count); format: cell-based, human; conditions: total cell count, FIG. 12
Protocol: The ability of L-holin to trigger death of NK92^CIRB cells and NK92^CIRB21 cells was tested. L-bolin expression was induced in NK92^CIRB cells and NK92^CIRB21 cells with doxycycline. Cells were washed to remove doxycycline and then cells were cultured for 13 days. Total number of cells were counted after 13 days of growth in the absence of doxycycline. Untreated cells were counted as a control. […] This sensitivity is consistent with the reliance of NK92^CIRB21 cells on mitochondria, which are lysed by L-holin during cell killing.

NK92^CIRB21 cells [5] = experiment: L-Holin killing of NK92^CIRB21 cells (doxycycline induction, cell count); format: cell-based, human; conditions: NK92^CIRB21 cells expressing L-Holin, total cell count, FIG. 5B / FIG. 12
Protocol: NK92^CIRB21 pool selection—NK92^CIRB21 cells expressing L-Holin were selected with puromycin and NK92^CIRB21 cells expressing icasp9 and GFP were sorted by flow cytometry for GFP.
as §1
Mouse glioblastoma cell line GL261 was infected by a retrovirus expressing L-Holin. Clones were selected, L-Holin expression was induced with doxycycline, and cell viability was determined. […]
Expression of L-Holin in NK92^CIRB21+Holin cells was induced with doxycycline. Total number of cells were counted after doxycycline treatment. […] After 13 days of growth in the absence of doxycycline, total number of cells were counted. Untreated cells were counted as a control.
The ability of L-holin to trigger death of NK92^CIRB cells and NK92^CIRB21 cells was tested. […] Total number of cells were counted after 13 days of growth in the absence of doxycycline. Untreated cells were counted as a control. […]

glioblastoma GL261 cells = experiment: L-Holin killing assay in GL261 clones (doxycycline induction, crystal violet); format: cell-based, mouse
Protocol: L-Holin GL261 and icasp9 GL261 clones were selected as single cells by extreme dilution in 96 well plates. Clones were grown and evaluated for their response to dox (L-Holin) or AP1093 (icasp9).
as §1
Mouse glioblastoma cell line GL261 was infected by a retrovirus expressing L-Holin. Clones were selected, L-Holin expression was induced with doxycycline, and cell viability was determined. Four clones were tested: 2 clones with high expression levels of L-Holin (Clone 1, Clone 5) and 2 clones with low expression levels of L-Holin (Clone 6, Clone 9).
We compared the ability of L-Holin to trigger cell death to that of icasp9 in GL261 cells. GL261 cells were infected by a retrovirus expressing L-Holin or a retrovirus expressing icasp9. Clones were selected, L-Holin expression was induced with doxycycline, and cell viability was determined. […]

CC[C@H](C(=O)N1CCCC[C@H]1C(=O)O[C@H](CCc1ccc(OC)c(OC)c1)c1cccc(OCC(=O)NCCNC(=O)COc2cccc([C@@H](CCc3ccc(OC)c(OC)c3)OC(=O)[C@@H]3CCCCN3C(=O)[C@@H](CC)c3cc(OC)c(OC)c(OC)c3)c2)c1)c1cc(OC)c(OC)c(OC)c1 [AP1093]
viability of NK92^CIRB21-icasp9 cells in the presence of AP1093 (NK92^CIRB21-icasp9 cells; 10 nM AP1093, FIG. 9A): remained viable | viability of NK92 cells expressing GFP and icasp9 in AP1093 (NK92^CIRB21-icasp9 cells; 10 nM AP1093, after 5 days, GFP detection by immunofluorescence, FIG. 9B): viable in 10 nM of AP1093 even after 5 days

O=C1N[C@](c2ccc(N3CCOCC3)cc2)(c2ccsc2)CC(O)=C1Sc1ccccc1Cl [R-GNE140]
IC50 (NK92^CIRB21 cells [1]): 10.6 µM | IC50 (NK92^CIRB cells [2]): 4.7 µM

IL2: immunostimulatory cytokine
half-life of IL2 in vivo [3]: less than 10 min

IL21: soluble interleukin of the IL2 family added to NK92^CIRB cells
effect of soluble interleukin on cytotoxicity of NK92^CIRB against PC-3 cells (PC-3 cells): dramatically enhance cytotoxicity

B1: L-Holin: pore-forming holin protein from bacteriophage, SEQ ID NO: 1, expressed under a tetracycline regulated promoter (protein)
chain: MPEKHDLLAAILAAKEQGIGAILAFAMAYLRGRYNGGAFTKTVIDATMCAIIAWFIRDLLDFAGLSSNLAYITSVFIGYIGTDSIGSLIKRFAAKKAGVEDGRNQ
modifications: Enterobacteriaceae
detectable cells after L-Holin induction and 13 days of growth in the absence of doxycycline (NK92^CIRB cells [4]): some NK92^CIRB cells survived and were detectable | detectable cells after L-Holin induction and 13 days of growth in the absence of doxycycline (NK92^CIRB21 cells [5]): remained undetectable | detectable cells after L-Holin induction and 13 days of growth in the absence of doxycycline (NK92^CIRB21 cells [5]; listed as L-holin): undetectable | triggering of cell death compared with icasp9 expressed at low levels (glioblastoma GL261 cells; GL261 cells, icasp9 Clone 2, 2 nM or 10 nM AP1903, FIGS. 7A-7B): more effective at triggering cell death than icasp9 expressed at low levels | cell death as a result of L-Holin expression (glioblastoma GL261 cells; GL261 clones with high (1, 5) and low (6, 9) L-Holin expression, doxycycline induced, FIG. 5A): majority, if not all, of GL261 cells died

From US20240207405A1, “IL2 TETHERED TO ITS RECEPTOR IL2RBETA AND PORE-FORMING PROTEINS AS A PLATFORM TO ENHANCE IMMUNE CELL ACTIVITY” (The General Hospital Corporation, priority 2021, published 2024)
